In article PMC3179463:

Experiments:
[1] = molecular target: MALT1 tandem Ig-like domains (IgL1–IgL2) (human); assay: AUC; sedimentation equilibrium, Beckman Optima XL-A, An-60 Ti rotor; 20 mM Tris-HCl pH 8, 200 mM NaCl, 1 mM TCEP; 12,000 and 15,000 rpm, 4°C; 0.25, 0.5 and 1.0 mg/ml; global self-association fit
[2] = molecular target: MALT1 tandem Ig-like domains (IgL1–IgL2) (human); assay: SEC; Superdex-200 16/60, 10 mg/mL protein, Tris buffer pH 8.0 (50 mM in the methods, 20 mM in the legend), 500 mM NaCl, 1 mM TCEP, 4°C; mass estimated from standard proteins

- stoichiometry N [1]: 3.5
- stoichiometry N [2]: 4
Substance: MALT1 tandem Ig-like domains (IgL1–IgL2) (domain or fragment)
